Assays:
[1] = molecular target: IAPP fibrils (fIAPP) (human) (UniProt P10997)
[2] = molecular target: islet amyloid polypeptide (IAPP) (human) (UniProt P10997)
[3] = molecular target: Aβ42 (Homo sapiens (Human)) (UniProt P05067)
[4] = molecular target: Aβ42 fibrils (fAβ42) (Homo sapiens (Human)) (UniProt P05067)

## proteinase K (PK) (from UniProt P06873) (enzyme)
[1]
  proteinase K digestion followed by dot blot (anti-fIAPP antibody): > 30 h
[2]
  proteinase K digestion of hf-IAPP/ACM followed by dot blot: < 6 h
[3]
  proteinase K digestion of hf-Aβ42/Nle3-VF followed by dot blot (6E10): 30 min
[4]
  proteinase K digestion followed by dot blot (6E10): 2 h
